The target in assay [1] is RSV postfusion F (postF), F deltaFP (Respiratory Syncytial Virus). Description: BLI, IgG on anti-human IgG sensor, 100 nM antigen.
The target in assay [2] is Respiratory Syncytial Virus fusion glycoprotein (RSV F) on RSV-A2 virus (Respiratory Syncytial Virus subtype A (RSV-A2)). Description: cell-based or functional assay.
Assay [3] addresses RSV prefusion F (preF, DS-Cav1) (Respiratory syncytial virus). The assay can be described thus: BLI, IgG on sensor, 100 nM antigen.
Assay [4] has as its target RSV postfusion F (postF, F deltaFP) (Respiratory syncytial virus). Description: BLI, IgG on sensor, 100 nM antigen.

B1: ADI-41223 (antibody, V domains shown)
VH: QVQLVESGGGVVQPGRSLRISCAASGFTFSNYGMHWVRQAPGKGLEWVAVLSYDGSNEYYADSVKGRFTISRDNSKNTLYLQMNSLRAEDTAVYYCAKNLNDYNISWYKCFDLWGRGTLVTVSS
VL: QPVLTQPASVSGSPGQSITISCTGTSSDVGGYNYVSWYQHHPGKAPKLIIYDVNNRPSGVSNRFSGSKSGNTASLTISGLQAEDEADYICSSYTTITTFVVFGGGTKLTVL
B1: the Kd in assay [1] is 1.81 nM. Further, in assay [2], the Neutralization IC50 (RSV subtype A) was > 25 µg/mL.

B2: ADI-41218 (antibody, V domains shown)
VH: QVQLVQSGAEVKKPGASVKVSCKASGYTFISDGISWVRQAPGQGLEWMGWINPHNENTNYAQKFQGRVTMTTDTSTSTAYLELRGLRSDDTAVYYCARDPYHWSYLDYWGQGTLVTVSS
VL: QSVVTQPPSVSGAPGQRVTITCTGSSSNIGANSDVHWYQQIPGTAPKLLIFGNSNRPSGVPDRFSGSKSGTSASLAITGLQAEDEADYYCQSYDRSLSGSRVFGGGTRLTVL
Molecule B2 displayed a Kd in assay [1] of 0.729 nM. Also, the Neutralization IC50 (RSV subtype A) in assay [2] is > 25 µg/mL.

B3: ADI-41347 (antibody, V domains shown)
VH: EVQLVESGPGLVKPSGTLSLTCAVSGGSVSSDNWWSWVRQPPGKGIEWIGEIYPSGGTNYNPSLNSRVTISVDKSKNQFSLKLNSVTAADTAIYYCARAPFDSSGYHSNSVWGQGTLVTVSS
VL: ETTLTQSPLSLPVTPGEPASISCRSSQSLLHSNGHNYLDWYVQKPGQSPQLLIYLSSNRASGVPDRFSGSGSGTDFTLRISRVEAEDVGVYYCMQPLQTPQTFGQGTKVEIK
In the case of B3, the Kd is 2.6 nM in assay [3] and 0.521 nM in assay [4].

B4: ADI-41176 (antibody, V domains shown)
VH: EVQLVESGPGLVKPSETLSLTCTVSGGSIGNDYYYWGWIRQPPGKGLEWIGNISYSGSTYYNPSLKSRVTISVGTSKNQFSLKLTSVSAADTAVYHCVGRTFWRDCSSTSCYEYYFDYWGQGTLVTVSS
VL: ETTLTQSPTSLSASVGDRVTITCRASQGISNYLAWYQQKPGKVPKVLIYAASTLQSGVSSRFSGSGSGTGFTLTISNLQPEDVATYYCQNYNSAPWTFGQGTKVEIK
Take B4: the dissociation constant Kd in assay [1] was determined as 4.07 nM. In addition, in assay [2], the Neutralization IC50 (RSV subtype A) was > 25 µg/mL.

B5: ADI-41342 (antibody, V domains shown)
VH: QVQLVQSGAEVKKPGSSVKVSCKASGGTLTSYGVSWVRQAPGQGLEWMGGIIPIFGTVDYAQKFQGRVTITADEPTSTAYMELSSLTSDDTAVYYCARDPWVSGPVEFYYYFDVWGRGTLVTVSS
VL: DIVLTESPATLSLSPGERATLSCRASQSINNRYLAWYQQKPGQAPRLLIFGASSRATGIPDRFSGSGSGTDFTLTISRLEPEDFAVYYCQQYGSTPPTFGQGTKVEIK
Consider B5, for which the Kd turned out to be 3.99 nM in assay [3] and 0.591 nM in assay [4].

B6: ADI-41159 (antibody, V domains shown)
VH: EVQLVESGAEVKKPGESLKISCKGSGYSFTTYWIGWVRQMPGKGLEWMGIMYPGDSQTRYSPSFQGQVTISADKSISTAYLQWSSLKASDTAMYYCARGGYCSGGSCYRGLDYWGQGTLVTVSS
VL: EIVMTQSPSSLSASVGDRVTITCRASQSISSFLNWYQQKPGKAPNLLIYAASSLLSGVPSRFSGSGSGTDFTLTISSLQPEDFATYYCQQSHSTPQTFGQGTKLEIK
As for B6, the equilibrium dissociation constant (Kd) in assay [1] turned out to be 9.87 nM. Also, the Neutralization IC50 (RSV subtype A) in assay [2] is > 25 µg/mL.

B7: ADI-41164 (antibody, V domains shown)
VH: QVQLVQSGGDLVQPGGSLRLSCAASGFTFSDYEVNWVRQAPGKGLEWLSYISSSGRIIHYADSVRGRFTISRDNAKNSLYLQMNSLRAEDTAVYYCARAAGQWLVTYYYYGMDVWGQGTTVTVSS
VL: QSVMTQSPSTLSASVGDTVTITCRASQSIINRLAWYQQKPGKPPKLLIYKSSSSESGVPSKFSGSGSGTEFTLTINSLQPDDFATYYCQHYNSYLYTFGQGTKVEIK
In turn, B7 came in with an equilibrium dissociation constant (Kd) in assay [1] of 0.962 nM. Also, the Neutralization IC50 (RSV subtype A) in assay [2] was > 25 µg/mL.

B8: ADI-41345 (antibody, V domains shown)
VH: EVQLVQSGAEVRKPGESLKISCKGSGYNFASYWIAWVRQMPGKGLEWMGIIFPGDSDTRYSPSFQGQVTISVDKSISTAYLQWSSLKASDTAIYYCATSKYTFGYLDWGQGTLVTVSS
VL: NFMLTQPHSVSESPGKTVTISCTRSSGSIASNYVQWYQQRPGSAPTTVIYEDNQRPSGVPDRFSGSIDSSSNSASLTISGLKTEDEADYYCQSYDTSNQVFGTGTKVTVL
For the molecule B8, the values for the Kd in assay [3] and in assay [4] were 2.29 nM and 0.349 nM, respectively.

B9: ADI-41346 (antibody, V domains shown)
VH: QVQLVQSGPEVKKPGESLKISCTLSASGLTTYWIGWVRQMPAKGLEWMGIIFPGDSDTRYSPSFQGQVTISADKSTNTAYLQWSGLKASDTAIYYCATLQTPVTGLDQWGQGTLVTVSS
VL: NFMLTQPHSVSESPGKTVTISCTRSSGNIARSYVQWYQQRPGSAPTTVIHEDDQRPSGVPDRFSGSIDTSSNSASLTISGLKTEDEADYYCQSYDPSNYVFGTGTKVTVL
As to B9, the dissociation constant (Kd) in assay [3] turned out to be 1.88 nM; in assay [4], 0.267 nM.

B10: ADI-41219 (antibody, V domains shown)
VH: EVQLVESGGGLVQPAGSLRLSCAASGFTFSNYVMNWVRQAPGKGLEWVSYISSSGRTIHYADSVKGRFTISRDNAKNSLYLEMNSLRAEDTAVYYCARDPNYGGNSNRFDSWGQGTLVTVSS
VL: DIVMTQTPSSLSASVGDRVTITCRASQTISNYLNWYQQKPGKAPKLLIFAASSLQSGVPSRFSGSGSGTDFTLTISSLQPEDFATYYCQQSYSAPRVTFGPGTKVDIK
With B10, the dissociation constant (Kd) in assay [1] was 1.28 nM. Moreover, in assay [2], the Neutralization IC50 (RSV subtype A) is > 25 µg/mL.

B11: ADI-41156 (antibody, V domains shown)
VH: QVQLVQSGGGLVQPGGSLRLSCVASGFIFSSYEMNWVRQAPGKGLEWVSYISSSGSTIYYADSVKGRFTISRDNAKNSLYLQMNSLGAEDTAVYYCARAILYFDYWGQGTLVTVSS
VL: GIRLTQSPSSLSASVGDRVTITCRASQSITNYINWYQQKPGKAPKLLIYAISRLQSGVPSRFSGSGSGTDFTLTISSLQPEDFATYYCQQSYSTMYTFGQGTKVEIK
As to B11, the equilibrium dissociation constant (Kd) in assay [1] stood at 1.7 nM. The Neutralization IC50 (RSV subtype A) in assay [2] was > 25 µg/mL.

B12: ADI-41174 (antibody, V domains shown)
VH: EVQLVESGAEVEKPGASVKVSCKASGYTFINYDIIWVRQAPGQGLEWMGWISGYKGNTNYAQKLQGRITMSTDTSTRTAYMELRSLTSDDTAVYYCARVGGTARSTTPYYYGMDVWGQGTTVTVSS
VL: SYVLTQPPSVSVSPGQTARITCSGDAVPKQFSYWYQQKPGQAPVLVIYKDIERPSGIPERFSGSSSGTTVTLTISGVQAEDEADYYCQSAHTSGTYHVFGTGTKLTVL
B12 registered an equilibrium dissociation constant (Kd) in assay [1] of 0.751 nM. In assay [2], the Neutralization IC50 (RSV subtype A) was > 25 µg/mL.

B13: ADI-41194 (antibody, V domains shown)
VH: QVQLQESGPGLVKPSQMLSLTCTVSGDSISSGDYYWSWIRHHPGKGLEWIGYISYSGSTYNNPSLKSRVTVSVDTSKNQFFLKLTSVTAADTAVYYCARATKPYHSYFYMDVWGKGTTVTVSS
VL: EIVLTQSPGTLSLSPGERATLSCRASQSGSRSYLAWYQQRPGQAPRLLIYGASNRATGIPDRFSGSGSGTDFTLTISRLEPEDFAVYYCQQYGNAPTFGGGTKVDIK
In assay [1], B13 came in with a Kd of 1.16 nM. The Neutralization IC50 (RSV subtype A) in assay [2] was > 25 µg/mL.
